The values below come from patent US6830937 (Bristol-Myers Squibb, dated 2004).

Assay [1] concerns the target T1, CD28 receptor (human, UniProt P10747 19-220). Description: cell-based or functional assay.
Assay [2] concerns the target B7 antigen (UniProt P33681). Kind of assay: flow cytometry, direct staining of 5E1 cells (B-LCL), no unlabeled BB-1. (Flow cytometry measures light scatter and fluorescence of single cells or particles in a stream.)
Assay [3] concerns the target B7 antigen (UniProt P33681). Kind of assay: flow cytometry, direct staining of Jijoye cells after preincubation with unlabeled BB-1.
In assay [4] the target is B7 antigen (UniProt P33681). Kind of assay: flow cytometry, direct staining of T51 cells after preincubation with unlabeled BB-1.
The target in assay [5] is B7 antigen (UniProt P33681). Kind of assay: cell-based or functional assay.
For assay [6], the target named is B7 antigen (UniProt P33681). Description: flow cytometry, direct staining of Jijoye cells (BL), no unlabeled BB-1.
The target of assay [7] is B7 antigen (UniProt P33681). Kind of assay: flow cytometry, direct staining of 5E1 cells after preincubation with unlabeled BB-1.
Assay [8] deals with B7 antigen (UniProt P33681). Kind of assay: flow cytometry, direct staining of T51 cells (B-LCL), no unlabeled BB-1.
The target in assay [9] is B7 antigen (UniProt P33681). Kind of assay: flow cytometry, direct staining of Raji cells (BL), no unlabeled BB-1.
Assay [10] has as its target B7 antigen (UniProt P33681). Kind of assay: flow cytometry, direct staining of Raji cells after preincubation with unlabeled BB-1.
The target of assay [11] is B7 antigen (UniProt P33681). Kind of assay: flow cytometry, direct staining of Daudi cells (BL), no unlabeled BB-1.
The target of assay [12] is B7Ig fusion protein (human) [IgG part: P01857]. Description: competition of 125I-B7Ig binding to immobilized CD28Ig.
For assay [13], the target named is B7 antigen (UniProt P33681). Kind of assay: flow cytometry, direct staining of Daudi cells after preincubation with unlabeled BB-1.
Assay [14] addresses T1, CD28 receptor. Description: flow cytometry, direct staining of CD28+ CHO cells.
For assay [15], the target named is T1, CD28 receptor. Kind of assay: flow cytometry, direct staining of phytohemagglutinin-stimulated T cells.

In turn, mAb 9.3 (Fab fragments) displayed a [3H]-T incorporation by PHA blasts stimulated with B7+ CHO cells (40:1), 9.3 Fab at 10 µg/ml with CD28 receptor [1] of 132000 cpm.
For orientation: IC50 means the point on the concentration scale where inhibition reaches its midpoint. Read a high IC50 as a need for much substance. Turning to mAb BB-1 (anti-B7) (antibody), the mean fluorescence, -COLD in the assay with B7 antigen [2] is 13 linear units; with B7 antigen [6] it was 17.8 linear units; with B7 antigen [8] it was 16.4 linear units; with B7 antigen [9], 7.1 linear units; with B7 antigen [11] it was 6.4 linear units. Moreover, the mean fluorescence, +COLD in the assay with B7 antigen [3] was 2.8 linear units; with B7 antigen [4], 3 linear units; with B7 antigen [7], 2.4 linear units; with B7 antigen [10] it was 2.8 linear units; with B7 antigen [13] it was 2.8 linear units. The [3H]-T incorporation by PHA blasts stimulated with B7+ CHO cells (40:1), BB-1 at 10 µg/ml with B7 antigen [5] stood at 98300 cpm. The same molecule gave an inhibition of adhesion of Jijoye cells to CD28+ CHO cells with B7 antigen [5] of 60%. This molecule also registered an IC50 in assay [12] of 140 nM.
“monoclonal antibody (mAb) 9.3 (anti-CD28)” registered a mean channel fluorescence (linear fluorescence units) with CD28 receptor [14] of 116. In the assay with CD28 receptor [1], this molecule displayed a [3H]-T incorporation by PBL, +Anti-CD3, Exp. 1, mAb 9.3 (immob.) of 137000 cpm; a [3H]-T incorporation by PBL, +Anti-CD3, Exp. 1, mAb 9.3 (soln.) of 156000 cpm; a [3H]-T incorporation by PBL, +Anti-CD3, Exp. 2, mAb 9.3 (soln.) of 75800 cpm; a [3H]-T incorporation by PBL, -Anti-CD3, Exp. 1, mAb 9.3 (immob.) of 100 cpm. Besides, in the assay with CD28 receptor [1], the [3H]-T incorporation by PBL, -Anti-CD3, Exp. 1, mAb 9.3 (soln.) worked out at 300 cpm; the [3H]-T incorporation by PBL, -Anti-CD3, Exp. 2, mAb 9.3 (soln.) is 400 cpm; the half-maximal inhibition of CD28-mediated adhesion (PM lymphoblastoid cells to CD28+ CHO cells) stood at 10 nM; the inhibition of adhesion of B7 transfected COS cells to CD28+ CHO cells when EDTA was omitted is 40%. Moreover, in the assay with CD28 receptor [1], the reduction of adhesion of T51 cells to CD28+ CHO cells by mAb 9.3 alone (no EDTA) was found to be 62% and the reduction of adhesion of T51 cells to CD28+ CHO cells by mAb 9.3 plus EDTA came out at 93%. The mean channel fluorescence (linear fluorescence units) with CD28 receptor [15] came to 11.3.

B1: B7 antigen (ligand, UniProt P33681 35-288, looked up)
chain: VIHVTKEVKEVATLSCGHNVSVEELAQTRIYWQKEKKMVLTMMSGDMNIWPEYKNRTIFDITNNLSIVILALRPSDEGTYECVVLKYEKDAFKREHLAEVTLSVKADFPTPSISDFEIPTSNIRRIICSTSGGFPEPHLSWLENGEELNAINTTVSQDPETELYAVSSKLDFNMTTNHSFMCLIKYGHLRVNQTFNWNTTKQEHFPDNLLPSWAITLISVNGIFVICCLTYCFAPRCRERRRNERLRRESVRPV
On to B1, for which, in the assay with CD28 receptor [1], the “adhesion of 51Cr-labeled T51 cells to CD28+ CHO cells relative to CD28- CHO cells, with EDTA” value was found to be 17 fold and the “adhesion of 51Cr-labeled T51 cells to CD28+ CHO cells relative to CD28- CHO cells, without EDTA” value was 5.5 fold.
